The target in data set [1] is VEGFR-2 (as used in the biosensor analysis) (UniProt P35968). The data set can be described thus: SPR biosensor, 1:1 Langmuir model; reference VEGF-DSSTS.IISS on the same receptor. A general note: In SPR one partner is held on a chip, and binding of the other changes the refractive index at the surface.
In data set [2] the target is VEGFR-3 (as used in the biosensor analysis) (UniProt P35916). Described as above.
The target in data set [3] is VEGFR-2 (as used in the biosensor analysis) (UniProt P35968). As to the kind of experiment: SPR. Particulars: ligand.
Data set [4] concerns the target VEGFR-3 (as used in the biosensor analysis) (UniProt P35916). As to the kind of experiment: SPR. Particulars: ligand.
The test system of the next data set is furin. The data set can be described thus: Knockdown of furin protein by shRNA (co-transfection of shRNA and furin expression constructs). The format is cell-based, human. From the text: Short hairpin RNA (shRNA) primers targeting furin RNA were designed using an in-house primer design algorithm. These primer pairs form the shRNA structure that then results in functional siRNA targeting sequences 457-476 and 558-575 of open reading frame of human furin sequence (Genbank Accession No. NM_002569.2, SEQ ID NO: 21). The underlined sections are structural motifs for the formation of the small hairpin RNA structure and for the ligation of the annealed primers to the parental vector. In bold the 5′-3′ upper strand of the target sequence which is naturally a part of the primer sequence.
The above shRNA primers were generated to target the sequences 5′-GACGATGGCATCGAGAAGAA-3′ (SEQ ID NO: 19) and 5′-ACA CAC AGA TGA ATG ACA A-3′ (SEQ ID NO: 20). Primers were annealed by heating a mix of 60 pM of both primers in 50 μl annealing buffer (0.1 M potassium acetate, 2 mM magnesium acetate, 30 mM HEPES pH 7.4) at 94° C. for 4 min then 70° C. for 10 min and allowed to cool to room temperature. Annealing was verified in 3% low melting point agarose gel. The shRNA construct was then ligated into pMSCVpac mU6 which is a derivative of pMSCV (Clontech). The shRNAs were validated by assessing reduction of furin protein levels resulting from co-transfections of shRNA and furin expression constructs in 293EBNA cells or other cell lines stably overexpressing furin.

Data set [5] deals with T1, VEGFR-2 (as used in the biosensor analysis) (UniProt P35968 20-764).
T1 chain: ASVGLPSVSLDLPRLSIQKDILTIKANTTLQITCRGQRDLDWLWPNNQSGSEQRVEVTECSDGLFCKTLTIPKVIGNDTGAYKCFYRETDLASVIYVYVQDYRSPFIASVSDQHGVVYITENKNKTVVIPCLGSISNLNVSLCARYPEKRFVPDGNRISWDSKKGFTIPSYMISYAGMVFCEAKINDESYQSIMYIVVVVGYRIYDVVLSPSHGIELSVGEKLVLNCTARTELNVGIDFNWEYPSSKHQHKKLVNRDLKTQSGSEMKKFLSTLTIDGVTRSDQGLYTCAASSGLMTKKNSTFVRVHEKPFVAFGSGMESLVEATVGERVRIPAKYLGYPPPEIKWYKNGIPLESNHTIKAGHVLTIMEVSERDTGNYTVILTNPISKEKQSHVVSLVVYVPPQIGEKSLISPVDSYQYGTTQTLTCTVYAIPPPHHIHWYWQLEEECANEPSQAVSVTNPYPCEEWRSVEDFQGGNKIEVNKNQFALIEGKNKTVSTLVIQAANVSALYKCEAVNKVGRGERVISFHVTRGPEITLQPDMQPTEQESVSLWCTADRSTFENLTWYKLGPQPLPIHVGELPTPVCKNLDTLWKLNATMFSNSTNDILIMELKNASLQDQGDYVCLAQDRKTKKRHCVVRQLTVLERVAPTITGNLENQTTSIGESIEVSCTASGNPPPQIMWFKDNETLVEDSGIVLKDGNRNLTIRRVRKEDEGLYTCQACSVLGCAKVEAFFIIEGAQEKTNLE
The data set can be described thus: SPR.

The target of data set [6] is T2, VEGFR-3 (as used in the biosensor analysis) (UniProt P35916 25-775).
T2 chain: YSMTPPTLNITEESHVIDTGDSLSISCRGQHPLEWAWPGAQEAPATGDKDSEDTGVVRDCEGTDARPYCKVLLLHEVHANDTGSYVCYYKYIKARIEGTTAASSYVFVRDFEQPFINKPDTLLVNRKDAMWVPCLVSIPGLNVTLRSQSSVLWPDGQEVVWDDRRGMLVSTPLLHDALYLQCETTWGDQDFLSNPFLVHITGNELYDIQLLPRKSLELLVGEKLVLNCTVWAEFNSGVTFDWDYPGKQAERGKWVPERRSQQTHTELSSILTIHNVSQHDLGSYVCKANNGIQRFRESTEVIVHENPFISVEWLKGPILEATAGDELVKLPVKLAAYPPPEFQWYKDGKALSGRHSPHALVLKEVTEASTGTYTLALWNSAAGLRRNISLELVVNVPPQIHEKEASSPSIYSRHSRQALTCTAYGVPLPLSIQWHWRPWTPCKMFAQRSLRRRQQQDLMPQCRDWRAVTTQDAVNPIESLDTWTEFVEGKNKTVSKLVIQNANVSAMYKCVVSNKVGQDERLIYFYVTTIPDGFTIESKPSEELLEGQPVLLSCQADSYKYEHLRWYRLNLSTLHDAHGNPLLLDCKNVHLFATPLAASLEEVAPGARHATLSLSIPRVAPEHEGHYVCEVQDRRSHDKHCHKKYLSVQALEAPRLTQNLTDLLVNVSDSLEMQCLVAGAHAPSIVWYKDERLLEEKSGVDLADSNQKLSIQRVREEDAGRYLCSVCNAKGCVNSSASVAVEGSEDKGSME
The data set can be described thus: SPR.

Data set [7] addresses VEGFR-2 (as used in the biosensor analysis) (UniProt P35968). The data set can be described thus: SPR biosensor, 1:1 Langmuir model; reference VEGF-DSSTS.IISS on the same receptor; the preparation held traces of processed forms.
For the next data set, the target named is VEGFR-2 (Homo sapiens, UniProt P35968). The data set can be described thus: Biosensor analysis (surface plasmon resonance) of VEGF-D ligands on VEGFR-2. The format is binding. The settings on record: 1:1 Langmurian model. On the procedure:
To determine the relative affinities of the ligands VEGF-DSSTS.IISS, VEGF-D-FULL-N-FLAG and mature VEGF-D (designated VEGF-DΔNΔC) for VEGFR-2 and VEGFR-3, the relative binding kinetics for these interactions was analyzed by biosensor analysis using surface plasmon resonance detection (Nice et al., Bioessays, 21:339-352, 1999). The preparations of VEGF-DSSTS.IISS and VEGF-DΔNΔC used for this analysis each consisted of one VEGF-D species devoid of other forms of VEGF-D but the preparation of VEGF-D-FULL-N-FLAG did contain traces of partially processed as well as full-length material, reflecting the capacity of wild-type full-length VEGF-D to be proteolytically processed in the 293EBNA cell cultures) from which these proteins were purified (see FIG. 10B). The binding constants for the interactions were obtained by analysis of the initial dissociation phase to obtain the kd, which was then used to constrain a global analysis of the association region of the curves, using regions of the curves where a 1:1 Langmurian model appeared to be operative.

The values below come from patent US20070224194A1, “Methods for Inhibiting Angiogenesis and/or Lymphangiogenesis” (LUDWIG INSTITUTE FOR CANCER RESEARCH, priority 2004, published 2007).

Where a chain is given by its changes, count along the chain named.

VEGFR-2, sequence (P35968 20-1356): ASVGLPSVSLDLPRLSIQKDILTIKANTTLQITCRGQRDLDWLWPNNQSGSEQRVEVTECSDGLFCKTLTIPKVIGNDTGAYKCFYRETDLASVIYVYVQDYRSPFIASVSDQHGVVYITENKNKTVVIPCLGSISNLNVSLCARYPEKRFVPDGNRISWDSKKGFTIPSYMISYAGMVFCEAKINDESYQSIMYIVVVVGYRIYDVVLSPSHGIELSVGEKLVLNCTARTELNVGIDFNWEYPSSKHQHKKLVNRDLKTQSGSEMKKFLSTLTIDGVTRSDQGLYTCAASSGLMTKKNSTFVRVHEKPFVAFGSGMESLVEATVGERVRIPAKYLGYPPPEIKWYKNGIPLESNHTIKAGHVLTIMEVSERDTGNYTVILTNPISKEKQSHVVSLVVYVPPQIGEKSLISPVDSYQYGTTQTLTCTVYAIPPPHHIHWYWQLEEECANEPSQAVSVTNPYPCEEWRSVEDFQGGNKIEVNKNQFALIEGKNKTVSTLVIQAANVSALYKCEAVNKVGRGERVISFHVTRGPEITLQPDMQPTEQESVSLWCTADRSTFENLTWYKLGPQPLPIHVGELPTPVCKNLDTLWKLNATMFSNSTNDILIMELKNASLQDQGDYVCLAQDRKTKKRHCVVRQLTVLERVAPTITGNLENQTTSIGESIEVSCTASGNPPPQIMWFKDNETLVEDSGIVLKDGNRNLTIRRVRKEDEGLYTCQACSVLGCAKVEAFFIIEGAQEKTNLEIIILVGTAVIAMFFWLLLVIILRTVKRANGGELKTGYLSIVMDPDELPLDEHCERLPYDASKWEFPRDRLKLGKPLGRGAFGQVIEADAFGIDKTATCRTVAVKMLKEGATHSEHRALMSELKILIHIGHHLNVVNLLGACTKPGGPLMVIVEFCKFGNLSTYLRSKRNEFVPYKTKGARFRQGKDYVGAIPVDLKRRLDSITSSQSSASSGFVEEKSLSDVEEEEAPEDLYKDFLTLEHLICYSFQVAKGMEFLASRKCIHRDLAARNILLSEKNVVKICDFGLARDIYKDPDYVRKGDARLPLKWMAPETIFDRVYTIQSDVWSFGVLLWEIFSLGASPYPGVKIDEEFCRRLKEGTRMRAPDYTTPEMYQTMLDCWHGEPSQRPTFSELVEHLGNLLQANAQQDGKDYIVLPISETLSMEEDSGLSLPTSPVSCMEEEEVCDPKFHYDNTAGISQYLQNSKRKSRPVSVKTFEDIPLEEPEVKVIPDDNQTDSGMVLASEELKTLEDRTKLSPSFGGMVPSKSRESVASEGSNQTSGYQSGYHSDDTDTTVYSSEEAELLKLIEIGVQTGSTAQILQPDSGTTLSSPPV

Regarding “mature VEGF-D (designated VEGF-DΔNΔC) (from UniProt O43915 93-201) (ligand)”, in data set [1], the fold greater apparent affinity than VEGF-DSSTS.IISS was 17000 fold. For the same molecule, the fold greater affinity than VEGF-DSSTS.IISS in [2] worked out at 18 fold. In the case of “mature VEGF-D (designated VEGF-DΔNΔC) (from UniProt O43915 93-201)”, the Kd (usually the free concentration of one partner at which half of the binding sites on the other are occupied at equilibrium, for simple one-to-one binding) was 0.0087 µM in data set [3] and 0.044 µM in data set [4].

B1: Second shRNA pair: shRNA primer pair (SEQ ID NO:17 and 18) targeting bases 558-575 of human furin (nucleic acid)
chain 1: CACACAGATGAATGACAATTCAAGAGATTGTCATTCATCTGTGTGTTTTTT
chain 2: AATTAAAAAACACACAGATGAATGACAATCTCTTGAATTGTCATTCATCTGTGTG
Consider B1, for which the “knockdown of protein expression in vitro” value in the data set on furin is 70-80%.

B2: VEGF-D-FULL-N-FLAG (full-length VEGF-D tagged with FLAG at the N-terminus) (ligand)
chain: NEHGPVKRSSQSTLERSEQQIRAASSLEELLRITHSEDWKLWRCRLRLKSFTSMDSRSASHRSTRFAATFYDIETLKVIDEEWQRTQCSPRETCVEVASELGKSTNTFFKPPCVNVFRCGGCCNEESLICMNTSTSYISKQLFEISVPLTSVPELVPVKVANHTGCKCLPTAPRHPYSIIRRSIQIPEEDRCSHSKKLCPIDMLWDSNKCKCVLQEENPLAGTEDHSHLQEPALCGPHMMFDEDRCECVCKTPCPKDLIQHPKNCSCFECKESLETCCQKHKLFHPDTCSCEDRCPFHTRPCASGKTACAKHCRFPKEKRAAQGPHSRKNP
As to B2, the Kd in data set [5] amounted to 1.6 µM; in data set [6], 0.49 µM. The fold greater affinity than VEGF-DSSTS.IISS in data set [7] came out at 94 fold.

B3: VEGF-DSSTS.IISS (ligand)
chain: B2 chain with R62S, R65S, R181S, R182S
In the case of B3, the Kd turned out to be 150 µM in [5] and 0.79 µM in [6].

B4: VEGF-D-FULL-N-FLAG: full-length VEGF-D tagged with FLAG at the N-terminus; preparation contained traces of partially processed material (protein)
chain: B2 chain
modifications: left off: small tags and cut ends
notes: full-length VEGF-D tagged with FLAG at the N-terminus; preparation contained traces of partially processed material
On to B4, for which, in the data set with VEGFR-2, the “apparent affinity for VEGFR-2 relative to unprocessed mutant VEGF-DSSTS.IISS” value is on record as approximately 94 fold.

B5: First primer pair: shRNA primer pair (SEQ ID NO:15 and 16) targeting bases 457-476 of human furin (nucleic acid)
chain 1: GACGATGGCATCGAGAAGAATTCAAGAGATTCTTCTCGATGCCATCGTCTTTTTT
chain 2: AATTAAAAAAGACGATGGCATCGAGAAGAATCTCTTGAATTCTTCTCGATGCCATCGTC
For the molecule B5, in the data set with furin, the “knockdown of furin protein expression in vitro” value is recorded as “almost complete knockdown”.
